From patent US20210206880A1

Target: human β2 adrenergic receptor, wild type (human) (UniProt P07550)
Test: cell-based or functional assay

Substance: MbNb80^cHopQ (designed binder)
- apparent potency shift for epinephrine: IC50 for β2AR-wt alone divided by IC50^high in the presence of MbNb80^cHopQ ([3H]-DHA competition) (fold (IC50 ratio)): 2000
- apparent potency shift for isoprotenerol: IC50 for β2AR-wt divided by IC50^high in the presence of MbNb80^cHopQ ([3H]-DHA competition) (fold (IC50 ratio)): 2000
